# B1: BOIIB2 antibody (antibody, human IgG4, kappa, V domains shown)
# VH: QVQLQESGPGLVKPSETLSLTCTVSGDSISDYYWSWIRQPPGKGLEWIGYFFYSGGSNYNPSLKSRVTMSVDTSKNQFSLKLGSVTAADTAVYYCARSQLRYYLDVWGQGTTVTVSS
# VL: EIVLTQSPGTLSLSPGERATLSCRASQSVDSNYLAWYQQKPGQAPRVVIYGASNRATGIPDRFSGSGSGTEFTLTISRLDPEDFAVYYCQQYGSFFGQGTRLEIKR
# notes: Human monoclonal IgG4 from a haemophilia A patient; also called anti-A2 antibody; FVIII anti-domain A2 BOIIB2 human antibody
# B2: 30D1 monoclonal anti-idiotypic antibody (antibody, mouse IgG1, V domains shown)
# VH: EVQLQQSGPELVKPGASMKISCKASGYSFTDYTMNWVKQSHGKNLEWIGLINPYNVISSYNQKFKGKATLTVDKSSSTAYMELLSLTSEDSAVYYCARKGYGSSMFAYWGQGTLVTVSA
# VL: DIVMTQSHKFMSTSVGGRVSITCKASQDVTTAVAWYQQKPGQSPKLLIYSASYRYTGVPDRFTGSGSGTDFTFTFSSVQAEDLAVYYCQQHYSIPWTFGGGTKLEIKR
# notes: Tested as hybridoma supernatant and Protein G purified (SPR); also called 30D1 anti-Id; 30DA1
# Assays:
# [1] = target: T1, Factor VIII fragment 379-546Mut (R484A, Y487A, R489A, P492A), tagged (UniProt P00451 398-565, labeled in vitro with L-(35S) methionine); assay: immunoprecipitation of 35S-labelled fragment by BOIIB2 on Protein A Sepharose
# T1 construct: Produced in rabbit reticulocyte lysate
# T1 sequence: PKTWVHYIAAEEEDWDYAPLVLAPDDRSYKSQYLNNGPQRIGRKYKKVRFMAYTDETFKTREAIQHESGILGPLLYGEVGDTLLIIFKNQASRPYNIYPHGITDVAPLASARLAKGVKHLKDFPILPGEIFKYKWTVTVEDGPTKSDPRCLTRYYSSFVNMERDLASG
# Protocol: The immunoprecipitation of the transcribed genes is carried out as follows. Sample dilutions containing the specific antibodies are mixed with 40 up of Protein A Sepharose (Pharmacia) in 500 up of a suitable buffer, and the mixture is gently stirred for 1 hour at 4° C. The non-fixed antibodies are eliminated by means of a succession of centrifugations and washings. The complex antibody-Protein A Sepharose is resuspended in 300 up of buffer supplemented with 3 up of polypeptides of Factor VIII labeled in vitro with methionin L-(³⁵S), in order to incubate at 4° C. for 2 hours. The complexes antigens/antibodies are eluted from the beads by boiling for 3 minutes in 30 up of denaturating buffer and the radioactivity is counted. A second aliquot is analyzed by SDS-PAGE and visualized by autoradiography.
# The fragments were immunoprecipitated by the human BOIIB2 antibody bound to Protein-A Sepharose. After washing, the complex was eluted and the radioactivity measured (in CPM) by scintillation and charged on SDS-PAGE, followed by an autoradiography. […] The anti-c-myc 9E10 antibody and the human plasma were used as positive and negative controls, respectively.
# BOIIB2 antibody = target: B1; assay: SPR (BIAcore), BOIIB2 immobilized on CM5, 30D1 as analyte
# Protocol: The kinetics of fixation of the 30D1 anti-idiotypic antibody to the BOIIB2 inhibitor antibody was assessed by the method <<Surface plasmon resonance Biacore>> using the Pharmacia Biosensor BIAcore (Pharmacia Biosensor AB, Uppsala, Sweden). The BOIIB2 antibodies were immobilized on an activated surface of a probe CM5. The 30D1 anti-idiotypic antibodies were infused in several concentrations of immobilized BOIIB2 on the surface of the probe.
Binder,binding result [1],Kd (BOIIB2 antibody) [nM],koff (BOIIB2 antibody) [s⁻¹],kon (BOIIB2 antibody) [M⁻¹ s⁻¹]
B1,no binding,–,–,–
B2,–,≤ 0.17,≤ 1e-05,60000
